In doi:10.1101/2020.03.26.009662:

Molecular target: ForT, recombinant wild type
Experiment: SEC-MALS

Substance: ForT, recombinant wild type (enzyme)
- stoichiometry N: 2
